According to paper PMC10046861, “Linker Length Drives Heterogeneity of Multivalent Complexes of Hub Protein LC8 and Transcription Factor ASCIZ” (Biomolecules, 2023):
Several values for one entry are separate records, joined by “and”; a condition that tells them apart may be missing. Identical values can stand only once.

B1: Drosophila LC8 (natural protein)
chain: MSDRKAVIKNADMSEEMQQDAVDCATQALEKYNIEKDIAAYIKKEFDKKYNPTWHCIVGRNFGSYVTHETRHFIYFYLGQVAILLFKSG
notes: LC8 hub protein (dynein light chain LC8) of Drosophila; folds as a homodimer; tag cleaved by TEV protease; also called LC8 dimer; source: E. coli Rosetta (DE3), purified (TALON, anion exchange, Superdex 75 gel filtration)
B3: Drosophila ASCIZ QT2–4 (residues 271–341) (domain or fragment, UniProt Q9VZU1 271-341, looked up)
chain: EVLAPLLRDIETQTPDTRGDIGTMTDDFPEEQEPVAVGSHFHAYSETEPMFDLQTSAHMYTQTCDDLFEEL
notes: also called wildtype QT2–4; intact QT2–4 construct; source: E. coli Rosetta (DE3), purified under denaturing conditions (TALON, anion exchange, gel filtration)

Experiments:
[1] = molecular target: QT2,3 (QT2–4 double-site variant, motifs QT2 and QT3 intact) (Drosophila) (UniProt Q9VZU1); assay: native MS; native ESI-MS; LC8 mixed with double-site QT variant at 2:1 LC8:QT, overnight at 4 °C; 25 µM total protein and dilutions to 500 nM; 200 mM ammonium acetate, pH 7.4; settings: scale: LC8 chains per variant chain
[2] = molecular target: QT2,4 (QT2–4 double-site variant, motifs QT2 and QT4 intact) (Drosophila) (UniProt Q9VZU1); assay: as above; settings: scale: LC8 chains per variant chain
[3] = molecular target: QT3,4 (QT2–4 double-site variant, motifs QT3 and QT4 intact) (Drosophila) (UniProt Q9VZU1); assay: as above; settings: scale: LC8 chains per variant chain
[4] = molecular target: QT2,3 (QT2–4 double-site variant, motifs QT2 and QT3 intact) (Drosophila) (UniProt Q9VZU1); assay: ITC; LC8 (400–500 µM) in the syringe titrated into QT variant (20–50 µM) in the cell; 25 °C; 50 mM sodium phosphate, 50 mM NaCl, 1 mM sodium azide, 5 mM β-mercaptoethanol, pH 7.5; single set of sites fit, for double-site variants also sequential binding sites (SBS) and two sets of sites (TSS) fits
[5] = molecular target: QT3,4 (QT2–4 double-site variant, motifs QT3 and QT4 intact) (Drosophila) (UniProt Q9VZU1); assay: as above
[6] = molecular target: QT2,4 (QT2–4 double-site variant, motifs QT2 and QT4 intact) (Drosophila) (UniProt Q9VZU1); assay: as above
[7] = molecular target: QT2 (QT2–4 single-site variant, only motif QT2 intact) (Drosophila) (UniProt Q9VZU1); assay: as above
[8] = molecular target: QT4 (QT2–4 single-site variant, only motif QT4 intact) (Drosophila) (UniProt Q9VZU1); assay: as above
[9] = molecular target: the molecule itself; assay: native MS; native ESI-MS of the individual proteins (25 µM; dilution series); 200 mM ammonium acetate, pH 7.4
[10] = molecular target: B3; assay: SEC-MALS; 90 µM QT2–4 or QT4–6 mixed with 300 µM LC8 (1:3.3); Superdex200 10/300 GL, room temperature; 50 mM sodium phosphate, 0.4 M NaCl, 1 mM NaN3, 5 mM β-mercaptoethanol, pH 7.5; settings: both partners purified
Drosophila LC8 [11] = molecular target: B1; assay: ITC; LC8 (400–500 µM) in the syringe titrated into QT variant (20–50 µM) in the cell; 25 °C; 50 mM sodium phosphate, 50 mM NaCl, 1 mM sodium azide, 5 mM β-mercaptoethanol, pH 7.5; single set of sites fit, for double-site variants also sequential binding sites (SBS) and two sets of sites (TSS) fits; settings: both partners purified
Drosophila LC8 [12] = molecular target: B1; assay: negative-stain electron microscopy; images of a QT2–4/LC8 mixture; strings of LC8 dimers counted in 50 images; settings: both partners purified

Molecule: Drosophila LC8 (from UniProt Q24117 1-89) (natural protein)
- stoichiometry N [1]: 2 (2×) and 4 and 3
- stoichiometry N [2]: 2 (2×) and 4 and 3
- stoichiometry N [3]: 2 (2×) and 4 and 3
- fold stabilisation of the stronger site (QT2) against its single-site variant, two sets of sites fit [4]: 7 fold
- fold stabilisation of the weaker site (QT3) against its single-site variant, two sets of sites fit [4]: 2 fold
- N of site QT3, two sets of sites fit [5]: 0.2

Molecule: B1
- N of site QT4, two sets of sites fit [6]: 0.6
- fold increase in affinity of site QT4 against the single-site variant QT4, sequential binding sites fit [6]: 5 fold
- Kd of the second (weaker) site, QT3, sequential binding sites fit [5]: 40 µM
- Kd of the second (weaker) site, QT3, two sets of sites fit [5]: 25.7 µM
- Kd [7]: 9.3 µM
- dH [7]: -10.7 kcal/mol
- Kd [8]: 15 µM
- dH [8]: -16.1 kcal/mol
- stoichiometry N [9]: 2
- stoichiometry N [10]: 1 LC8 chains per QT2–4 chain (2 QT2–4 chains, 2 LC8 chains)

B2: QT3 (QT2–4 single-site variant, only motif QT3 intact) (domain or fragment)
chain: EVLAPLLRDIEAAAPDTRGDIGTMTDDFPEEQEPVAVGSHFHAYSETEPMFDLQTSAHMYAAACDDLFEEL
modifications: Anchor positions are not printed. They were deduced from 8-residue motifs ending in the anchor, linkers of 3 and 30 residues, and 9 residues after QT4; the wild-type letters must match the entry …
- Kd (Drosophila LC8 [11]): 36 µM

Molecule: B3
- binding result (Drosophila LC8 [12]): binds
